From the supplement of paper PMC5998384 come the findings set out here.

The test system of data set [1] is HeLa Kyoto. Nature of the data set: solubility in G1/S (NP-40 vs SDS abundance) (log2 ratio); higher = more soluble. As to conditions: cell cycle stage: G1/S.
The test system of data set [2] is HeLa Kyoto. Nature of the data set: melting temperature (median over replicates), in situ; higher = more thermally stable.
The subject of data set [3] is HeLa Kyoto. In words: thermal stability score vs G1/S (z-score of summed log2 fold changes over temperatures); higher = more thermally stable than in G1/S.
Data set [4] has as its system HeLa Kyoto. In words: solubility change mitosis vs G1/S (difference of NP-40 vs SDS log2 ratios) (log2 ratio difference); higher = more soluble in mitosis.
[5] abbreviates: cell cycle stage: early G1 (4.5 h after nocodazole release).
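Throughout, for melting temperature (median over replicates), in situ: HeLa Kyoto cells synchronized by double thymidine or nocodazole block, proteins quantified by TMT10plex mass spectrometry, three independent biological replicates.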
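Throughout, for solubility change mitosis vs G1/S (difference of NP-40 vs SDS log2 ratios): synchronized HeLa Kyoto cells (double thymidine block for G1/S, nocodazole release for mitosis), protein amounts in NP-40 versus SDS lysates quantified by mass spectrometry, three biological replicates.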
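Throughout, for solubility in G1/S (NP-40 vs SDS abundance): HeLa Kyoto cells arrested at G1/S by double thymidine block, proteins quantified by TMT10plex mass spectrometry in mild NP-40 versus SDS extracts, three biological replicates.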
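Throughout, for thermal stability score vs G1/S (z-score of summed log2 fold changes over temperatures): synchronized HeLa Kyoto cells, proteins quantified by TMT10plex mass spectrometry, three biological replicates, mitosis taken 0.5 h after nocodazole release, G1/S directly after double thymidine block.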

Take “MEEVPHDCPGADSAQAGRGASCQGCPNQRLCASGAGATPDTAIEEIKEKMKTVKHKILVLSGKGGVGKSTFSAHLAHGLAEDENTQIALLDIDICGPSIPKIMGLEGEQVHQSGSGWSPVYVEDNLGVMSVGFLLSSPDDAVIWRGPKKNGMIKQFLRDVDWGEVDYLIVDTPPGTSDEHLSVVRYLATAHIDGAVIITTPQEVSLQDVRKEINFCRKVKLPIIGVVENMSGFICPKCKKESQIFPPTTGGAELMCQDLEVPLLGRVPLDPLIGKNCDKGQSFFIDAPDSPATLAYRSIIQRIQEFCNLHQSKEENLISS [NUBP1]”: the “solubility in G1/S (log2)” value in the data set on HeLa Kyoto [1] came out at 0.398. Further, the values for the melting temperature in the data set on HeLa Kyoto [2] (cell cycle stage: G1/S) and in the data set with HeLa Kyoto [2] (cell cycle stage: mitosis) were 52.4 °C and 52.7 °C, respectively. Besides, the thermal stability score in the data set on HeLa Kyoto [3] (setting [5]) was 3.38; with HeLa Kyoto [3] (cell cycle stage: mitosis), 2.05. Further, in the data set on HeLa Kyoto [4], the “solubility change mitosis (log2)” value was 0.00361.
“MEKSRMNLPKGPDTLCFDKDEFMKEDFDVDHFVSDCRKRVQLEELRDDLELYYKLLKTAMVELINKDYADFVNLSTNLVGMDKALNQLSVPLGQLREEVLSLRSSVSEGIRAVDERMSKQEDIRKKKMCVLRLIQVIRSVEKIEKILNSQSSKETSALEASSPLLTGQILERIATEFNQLQFHAVQSKGMPLLDKVRPRIAGITAMLQQSLEGLLLEGLQTSDVDIIRHCLRTYATIDKTRDAEALVGQVLVKPYIDEVIIEQFVESHPNGLQVMYNKLLEFVPHHCRLLREVTGGAISSEKGNTVPGYDFLVNSVWPQIVQGLEEKLPSLFNPGNPDAFHEKYTISMDFVRRLERQCGSQASVKRLRAHPAYHSFNKKWNLPVYFQIRFREIAGSLEAALTDVLEDAPAESPYCLLASHRTWSSLRRCWSDEMFLPLLVHRLWRLTLQILARYSVFVNELSLRPISNESPKEIKKPLVTGSKEPSITQGNTEDQGSGPSETKPVVSISRTQLVYVVADLDKLQEQLPELLEIIKPKLEMIGFKNFSSISAALEDSQSSFSACVPSLSSKIIQDLSDSCFGFLKSALEVPRLYRRTNKEVPTTASSYVDSALKPLFQLQSGHKDKLKQAIIQQWLEGTLSESTHKYYETVSDVLNSVKKMEESLKRLKQARKTTPANPVGPSGGMSDDDKIRLQLALDVEYLGEQIQKLGLQASDIKSFSALAELVAAAKDQATAEQP [COG2]”: in the data set on HeLa Kyoto [1], the “solubility in G1/S (log2)” value was 0.0645. Also, the melting temperature stood at 50.2 °C in the data set with HeLa Kyoto [2] (cell cycle stage: G1/S) and 49.4 °C in the data set with HeLa Kyoto [2] (cell cycle stage: mitosis). The thermal stability score in the data set on HeLa Kyoto [3] (setting [5]) was found to be 0.195; with HeLa Kyoto [3] (cell cycle stage: mitosis), 0.834. For the same sequence, the “solubility change mitosis (log2)” value with HeLa Kyoto [4] was -0.0298.
“MEFAELIKTPRVDNVVLHRPFYPAVEGTLCLTGHHLILSSRQDNTEELWLLHSNIDAIDKRFVGSLGTIIIKCKDFRIIQLDIPGMEECLNIASSIEALSTLDSITLMYPFFYRPMFEVIEDGWHSFLPEQEFELYSSATSEWRLSYVNKEFAVCPSYPPIVTVPKSIDDEALRKVATFRHGGRFPVLSYYHKKNGMVIMRSGQPLTGTNGRRCKEDEKLINATLRAGKRGYIIDTRSLNVAQQTRAKGGGFEQEAHYPQWRRIHKSIERYHILQESLIKLVEACNDQTHNMDRWLSKLEASNWLTHIKEILTTACLAAQCIDREGASILIHGTEGTDSTLQVTSLAQIILEPRSRTIRGFEALIEREWLQAGHPFQQRCAQSAYCNTKQKWEAPVFLLFLDCVWQILRQFPCSFEFNENFLIMLFEHAYASQFGTFLGNNESERCKLKLQQKTMSLWSWVNQPSELSKFTNPLFEANNLVIWPSVAPQSLPLWEGIFLRWNRSSKYLDEAYEEMVNIIEYNKELQAKVNILRRQLAELETEDGMQESP [MTMR9]”: in the data set on HeLa Kyoto [1], the “solubility in G1/S (log2)” value is -0.116. For the same sequence, the figures for the melting temperature in the data set with HeLa Kyoto [2] (cell cycle stage: G1/S) and in the data set with HeLa Kyoto [2] (cell cycle stage: mitosis) were 50.2 °C and 50.6 °C, respectively. In addition, the thermal stability score with HeLa Kyoto [3] (setting [5]) is -0.213; in the data set with HeLa Kyoto [3] (cell cycle stage: mitosis), -0.626. In addition, the “solubility change mitosis (log2)” value in the data set with HeLa Kyoto [4] was -0.125.
For the sequence “MMSDEKNLGVSQKLVSPSRSTSSCSSKQGSRQDSWEVVEGLRGEMNYTQEPPVQKGFLLKKRKWPLKGWHKRFFYLDKGILKYAKSQTDIEREKLHGCIDVGLSVMSVKKSSKCIDLDTEEHIYHLKVKSEEVFDEWVSKLRHHRMYRQNEIAMFPHEVNHFFSGSTITDSSSGVFDSISSRKRSSISKQNLFQTGSNVSFSCGGETRVPLWLQSSEDMEKCSKDLAHCHAYLVEMSQLLQSMDVLHRTYSAPAINAIQGGSFESPKKEKRSHRRWRSRAIGKDAKGTLQVPKPFSGPVRLHSSNPNLSTLDFGEEKNYSDGSETSSEFSKMQEDLCHIAHKVYFTLRSAFNIMSAEREKLKQLMEQDASSSPSAQVIGLKNALSSALAQNTDLKERLRRIHAESLLLDSPAVAKSGDNLAEENSRDENRALVHQLSNESRLSITDSLSEFFDAQEVLLSPSSSENEISDDDSYVSDISDNLSLDNLSNDLDNERQTLGPVLDSGREAKSRRRTCLPAPCPSSSNISLWNILRNNIGKDLSKVAMPVELNEPLNTLQRLCEELEYSELLDKAAQIPSPLERMVYVAAFAISAYASSYYRAGSKPFNPVLGETYECIREDKGFQFFSEQVSHHPPISACHAESRNFVFWQDVRWKNKFWGKSMEIVPIGTTHVTLPVFGDHFEWNKVTSCIHNILSGQRWIEHYGEIVIKNLHDDSCYCKVNFIKAKYWSTNAHEIEGTVFDRSGKAVHRLFGKWHESIYCGGGSSSACVWRANPMPKGYEQYYSFTQFALELNEMDPSSKSLLPPTDTRFRPDQRFLEEGNLEEAEIQKQRIEQLQRERRRVLEENHVEHQPRFFRKSDDDSWVSNGTYLELRKDLGFSKLDHPVLW [OSBPL3]”, in the data set on HeLa Kyoto [1], the “solubility in G1/S (log2)” value was -0.196. Moreover, the melting temperature in the data set with HeLa Kyoto [2] (cell cycle stage: G1/S) stood at 48.8 °C; in the data set with HeLa Kyoto [2] (cell cycle stage: mitosis), 48.7 °C. Further, the results for the thermal stability score in the data set on HeLa Kyoto [3] (setting [5]) and in the data set with HeLa Kyoto [3] (cell cycle stage: mitosis) were 0.31 and 0.491, respectively. Also, the “solubility change mitosis (log2)” value in the data set with HeLa Kyoto [4] was -0.0655.
